Experimental findings from PMC5749897 (PLoS Pathogens, 2017) are described below.

The target of the assay is T1, wild-type HCV E1E2 (genotype 1a, strain H77) expression construct with C-terminal V5 epitope tag (Hepatitis C virus genotype 1a, strain …, strain).
T1 construct: also called wild-type E1E2; E1E2 complex; source: HEK-293T, transfected, in fixed and permeabilised cells; not shown: V5, C-terminal, kept
Put plainly: flow cytometry on cells; E1E2 library clones in HEK-293T, 22 h, fixed in 4% paraformaldehyde, permeabilised with 0.1% saponin; stained with mAb (0.33 to 2.0 ug/ml) or CD81-LEL-Fc, Alexa Fluor 488 secondary antibody; Intellicyt HTFC; signal as percent of wild-type E1E2 after subtraction of mock. As to conditions: one partner purified.

B1: monoclonal antibody AR3C (antibody, V domains shown)
VH: VQLLEQSGAEVKKPGSSVKVSCETSGGTFDNYALNWVRQAPGQGLEWIGGVVPLFGTTRNAQKFQGRVTISDDKSTGTGHMELRSLRSEDTAVYYCVRSVTPRYCGGGFCYGEFDYWGQGTLVTVSS
VL: EIELTQSPATLSVSPGERATLSCRASQSVSSNLAWYQQKPGQAPRLLIYGASTRATGIPARFSGSGSGTEFTLTVSRLEPEDSAVYFCQQYYRSPLTFGGGTKVEIK
notes: also called mAb AR3C
Consider B1, for which the binding result was “binds”.
